Five molecules from PMC9317633, “Antifungal Effect of Penicillamine Due to the Selective Targeting of L-Homoserine O-Acetyltransferase” (International Journal of Molecular Sciences, 2022) can be followed below.

The target of series [1] is T1, CaMet2NHp (Candida albicans, UniProt Q5A948).
T1 construct: gene MET2; full length with N-terminal oligo-His tag (kept), ~45 kDa; E. coli Rosetta (DE3) pLysS; dimer only in model
T1 sequence (Q5A948 1-409): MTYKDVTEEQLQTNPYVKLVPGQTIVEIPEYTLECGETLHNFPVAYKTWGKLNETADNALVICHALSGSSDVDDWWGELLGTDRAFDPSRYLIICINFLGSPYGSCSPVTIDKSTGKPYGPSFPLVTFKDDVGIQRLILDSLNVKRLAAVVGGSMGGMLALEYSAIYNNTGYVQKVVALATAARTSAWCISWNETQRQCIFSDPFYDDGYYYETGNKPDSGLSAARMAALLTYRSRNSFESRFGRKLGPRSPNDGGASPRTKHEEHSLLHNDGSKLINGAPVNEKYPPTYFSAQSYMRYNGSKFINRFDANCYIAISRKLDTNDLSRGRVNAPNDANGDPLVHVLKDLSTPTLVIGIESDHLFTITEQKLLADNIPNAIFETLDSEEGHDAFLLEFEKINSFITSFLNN
Put plainly: inhibition, DTNB end-point assay of CoA formed, […] nm. In kind it is biochemical.

The target in series [2] is T1, CaMet2NHp. Described as above. The settings on record: read-out: % inhibition at 25 mM. The class given is biochemical.
Substrate in series [3]: CC(=O)SCCNC(=O)CCNC(=O)[C@H](O)C(C)(C)COP(=O)(O)OP(=O)(O)OC[C@H]1O[C@@H](n2cnc3c(N)ncnc32)[C@H](O)[C@@H]1OP(=O)(O)O
The series is described as follows: purified protein. The settings on record: 10 mM L-Hom, pH 8.0 phosphate, 100 mM NaCl, 1 mM EDTA, 37 °C. In kind it is biochemical, Candida albicans.

Substrate in series [4]: N[C@@H](CCO)C(=O)O
Put plainly: purified protein. The class given is biochemical, Candida albicans. The settings on record: 3.5 mM AcCoA, pH 8.0 phosphate, 100 mM NaCl, 1 mM EDTA, 37 °C.

As a reminder, the IC50 is the concentration that gives 50% inhibition. Higher therefore signals weaker potency in that assay. As to `CC(C)(S)[C@H](N)C(=O)O` [L-Pen], the IC50 in series [1] is ~2 mM.

As a reminder, the inhibition is the percentage by which the read-out fell short of the control. As to `CSCC[C@H](N)C(=O)O` [L-Met], in series [2], the inhibition at 25000 µM stood at 17%.

For the molecule `CC(C)(S)[C@@H](N)C(=O)O` [D-Pen], the IC50 in series [1] is ~2 mM.

B1: CaMet2p (Candida albicans SC5314) (protein)
chain: MTYKDVTEEQLQTNPYVKLVPGQTIVEIPEYTLECGETLHNFPVAYKTWGKLNETADNALVICHALSGSSDVDDWWGELLGTDRAFDPSRYLIICINFLGSPYGSCSPVTIDKSTGKPYGPSFPLVTFKDDVGIQRLILDSLNVKRLAAVVGGSMGGMLALEYSAIYNNTGYVQKVVALATAARTSAWCISWNETQRQCIFSDPFYDDGYYYETGNKPDSGLSAARMAALLTYRSRNSFESRFGRKLGPRSPNDGGASPRTKHEEHSLLHNDGSKLINGAPVNEKYPPTYFSAQSYMRYNGSKFINRFDANCYIAISRKLDTNDLSRGRVNAPNDANGDPLVHVLKDLSTPTLVIGIESDHLFTITEQKLLADNIPNAIFETLDSEEGHDAFLLEFEKINSFITSFLNN
notes: E. coli BL21 Star (DE3); dimer only in model
As a reminder, the Km is the substrate concentration at which the rate is half of its maximum. As usually defined, the Vmax is the top rate of the reaction or transport when substrate is in excess. The kcat is the maximal rate divided by the concentration of active sites. A word on the kcat/Km: it is the turnover number divided by the Michaelis constant. On to B1, for which, in series [3], the Km is 0.906 ± 0.119 mM, the maximum rate (Vmax) was found to be 20.1 µmol/min/mg, the kcat came out at 15.2 ± 0.572 s⁻¹ and the kcat/Km came to 16800 M⁻¹ s⁻¹. Also, in series [4], the Km was 0.405 ± 0.050 mM, the maximum rate (Vmax) stood at 17.1 µmol/min/mg, the kcat stood at 13 ± 0.405 s⁻¹ and the kcat/Km is 32100 M⁻¹ s⁻¹.

B2: CaMet2NHp (Candida albicans SC5314) (protein)
chain: MTYKDVTEEQLQTNPYVKLVPGQTIVEIPEYTLECGETLHNFPVAYKTWGKLNETADNALVICHALSGSSDVDDWWGELLGTDRAFDPSRYLIICINFLGSPYGSCSPVTIDKSTGKPYGPSFPLVTFKDDVGIQRLILDSLNVKRLAAVVGGSMGGMLALEYSAIYNNTGYVQKVVALATAARTSAWCISWNETQRQCIFSDPFYDDGYYYETGNKPDSGLSAARMAALLTYRSRNSFESRFGRKLGPRSPNDGGASPRTKHEEHSLLHNDGSKLINGAPVNEKYPPTYFSAQSYMRYNGSKFINRFDANCYIAISRKLDTNDLSRGRVNAPNDANGDPLVHVLKDLSTPTLVIGIESDHLFTITEQKLLADNIPNAIFETLDSEEGHDAFLLEFEKINSFITSFLNN
notes: full length with N-terminal oligo-His tag (kept), ~45 kDa; E. coli Rosetta (DE3) pLysS; dimer only in model
Turning to B2, in series [3], the Km turned out to be 1.13 ± 0.150 mM, the Vmax was 19.8 µmol/min/mg, the catalytic constant (kcat) stood at 15 ± 0.635 s⁻¹ and the kcat/Km turned out to be 13300 M⁻¹ s⁻¹. In addition, in series [4], the Km turned out to be 0.578 ± 0.118 mM, the Vmax worked out at 17.2 µmol/min/mg, the kcat was determined as 13.1 ± 0.723 s⁻¹ and the kcat/Km came to 22700 M⁻¹ s⁻¹.
